This is an account of results in patent US20210101998A1 (Pfizer, published 2021).

The target of assay [1] is humTFPI K1K2 (human). The assay can be described thus: cell-based or functional assay.
Assay [2] has as its target T1, ratTFPI K1K2 (rat).
T1 chain: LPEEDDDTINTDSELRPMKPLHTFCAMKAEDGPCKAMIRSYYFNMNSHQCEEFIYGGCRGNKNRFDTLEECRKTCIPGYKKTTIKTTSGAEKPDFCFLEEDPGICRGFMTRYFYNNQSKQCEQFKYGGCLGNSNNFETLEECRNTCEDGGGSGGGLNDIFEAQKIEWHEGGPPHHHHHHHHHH
Description: SPR, antibody ligand, TFPI analyte.
Description: (§1) The flow cells were activated by injecting a 1:1 mixture of 400 mM 1-Ethyl-3-(3-dimethylaminopropyl) carbodiimide hydrochloride (EDC) and N-hydroxysuccinimide (NHS) for 7 minutes at a flow rate of 10 μl/minute. Anti-human IgG antibody was diluted to 25 μg/ml in 10 mM Sodium Acetate pH 5.0 and injected over all flow cells for 7 minutes at 10 ul/minute. All flow cells were blocked with 1 M Ethanolamine-HCL (ETH) for 7 minutes at 10 μl/minute. Final immobilization level of the capture antibody was approximately 10,000 resonance units (RU). The running buffer for immobilization and kinetics was 10 mM HEPES pH 7.4, 150 mM NaCl, 3 mM EDTA, 0.05% (v/v) Tween-20 (HBS-EP+). […] Flow cell 1 was used as a reference surface. […] At the end of each cycle, the entire anti-IgG surface was regenerated by a 60 second pulse of 3 M MgCl2. Kinetic assays were conducted at 25° C. at a collection rate of 10 Hz on a BIAcore T200 instrument (GE Healthcare). Rate constants and affinities were determined by fitting the data to a 1:1 model in BIAcore T200 Evaluation software version 1.0 (GE).

The target of assay [3] is T2, humTFPI K1K2 (human).
T2 construct: Biotinylated on the AviTag for ELISA; also called Human TFPIα K1K2; humTFPI K1K2-aviHis10
The assay can be described thus: SPR, antibody ligand, TFPI analyte. In general terms: Surface plasmon resonance follows binding to a sensor surface in real time, without labels.
Description: as §1

Assay [4] addresses T3, rabTFPI K1K2 (rabbit, limits assumed).
T3 construct: also called Rabbit TFPI K1K2; rabbit TFPI
T3 chain: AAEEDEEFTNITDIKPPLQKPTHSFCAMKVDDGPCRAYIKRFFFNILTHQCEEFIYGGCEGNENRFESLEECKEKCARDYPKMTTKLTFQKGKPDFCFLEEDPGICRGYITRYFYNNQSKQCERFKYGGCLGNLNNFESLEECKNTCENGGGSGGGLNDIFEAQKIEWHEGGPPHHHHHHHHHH
Description: SPR, antibody ligand, TFPI analyte.
Description: as §1

For assay [5], the target named is T4, cynTFPI K1K2 (cynomolgus monkey).
T4 construct: also called Cynomolgus Monkey TFPI K1K2; cyno TFPI K1K2
Description: SPR, antibody ligand, TFPI analyte.
Description: as §1

The target in assay [6] is T2, humTFPI K1K2. Description: SPR, summary table.
Description: as §1
Assay [7] addresses T3, rabTFPI K1K2. The assay can be described thus: SPR, summary table.
Description: as §1
Assay [8] deals with T4, cynTFPI K1K2. The assay can be described thus: SPR, summary table.
Description: as §1
The target in assay [9] is T5, murTFPI K1K2 (mouse).
T5 construct: also called Mouse TFPI K1K2; mouse TFPI
T5 chain: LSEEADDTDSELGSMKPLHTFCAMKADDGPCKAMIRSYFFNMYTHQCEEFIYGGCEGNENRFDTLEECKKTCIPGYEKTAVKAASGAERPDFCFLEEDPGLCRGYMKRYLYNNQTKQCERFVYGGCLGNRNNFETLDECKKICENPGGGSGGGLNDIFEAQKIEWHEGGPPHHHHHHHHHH
The assay can be described thus: SPR, summary table.
Description: as §1

The target of assay [10] is T5, murTFPI K1K2. The assay can be described thus: SPR, antibody ligand, TFPI analyte.
Description: as §1
In assay [11] the target is T6, cyno TFPI K2 (cynomolgus monkey, UniProt Q28864 116-177 (rhesus entry), limits assumed).
T6 construct: K2 fragment cut out of cynTFPI K1K2 with human neutrophil elastase, residual AviTag trimmed with AspN; also called Cynomolgus TFPI K2 domain; cyno K2
Description: not told.
Description: Based on buried surface area (BSA) and percent BSA (% BSA) for residues at the Fab TFPI K1K2 interface, the epitope and paratope of the complex were determined.

Assay [12] concerns the target T7, cyno K1 (cynomolgus monkey, UniProt Q28864 29-115 (rhesus entry), limits assumed).
T7 construct: also called K1 domain alone
T7 chain: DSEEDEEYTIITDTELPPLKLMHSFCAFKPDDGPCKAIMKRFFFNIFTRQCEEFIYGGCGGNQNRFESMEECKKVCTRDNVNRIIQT
Description: not told.

Assay [13] has as its target T2, humTFPI K1K2. Description: ELISA, biotinylated TFPI on streptavidin plate. For orientation: An ELISA detects its analyte on a solid surface through an enzyme-linked reagent.
Assay [14] has as its target T3, rabTFPI K1K2. Description: ELISA, biotinylated TFPI on streptavidin plate.
The target in assay [15] is T2, humTFPI K1K2. Description: SPR, antibody ligand, TFPI analyte. This is another data set of the same source.
Description: as §1
Assay [16] addresses T1, ratTFPI K1K2. The assay can be described thus: SPR, summary table.
Description: as §1
The target of assay [17] is T2, humTFPI K1K2. Description: cell-based or functional assay. This is another data set of the same source.
For assay [18], the target named is humTFPI K1K2K3 (human). The assay can be described thus: cell-based or functional assay.
The target in assay [19] is T2, humTFPI K1K2. Description: SPR, antibody ligand, TFPI analyte. The source holds these as a separate data set.
In assay [20] the target is T5, murTFPI K1K2. Description: SPR, antibody ligand, TFPI analyte.
In assay [21] the target is T2, humTFPI K1K2. The assay can be described thus: SPR, antibody ligand, TFPI analyte. This is another data set of the same source.
Description: as §1
Assay [22] deals with T2, humTFPI K1K2. Description: cell-based or functional assay. This is another data set of the same source.

One may read the Kd as the constant that tells how readily two partners part at equilibrium. One may read the koff as the rate constant with which the complex falls apart. Low readings indicate a long-lived complex, high ones a short-lived complex. As a reminder, the kon is a measure of how fast the partners come together. Higher therefore signals fast association. Usually EC50 stands for the concentration that produces a half-maximal response.

Where two headings read alike, the source gives them in different places.

B1: hz4F36 (antibody, human IgG4 S228P, kappa, V domains shown)
VH: EVQLVESGGGLVKPGGSLRLSCAASGFTFSNYAMSWVRQTPEKRLEWVATISRSGSYSYFPDSVQGRFTISRDNAKNSLYLQMNSLRAEDTAVYYCARLGGYDEGDAMDSWGQGTTVTVSS
VL: DIVMTQTPLSLSVTPGQPASISCKSSQSLLESDGKTYLNWYLQKPGQSPQLLIYLVSILDSGVPDRFSGSGSGTDFTLKISRVEAEDVGVYYCLQATHFPQTFGGGTKVEIKR
notes: also called Novo2021; Anti-TFPI-4F36
Turning to B1, the “FVIIa/TF/Xa EC50” value in assay [1] was found to be 1.85 nM. In addition, the “Xa Inhibition Assay EC50” value in assay [1] stood at 6.57 nM. Also, the binding result in assay [2] and in assay [9] was “no binding” each time. Besides, the Kd in assay [3] came to 0.49 nM; in assay [4], 1.81 nM; in assay [5] it was 0.425 nM; in assay [6], 0.493 nM; in assay [7], 1.81 nM; in assay [8] it was 0.425 nM. For the same molecule, the koff in [3] was determined as 0.00093 s⁻¹; in assay [4], 0.0076 s⁻¹; in assay [5], 0.00288 s⁻¹. For the same molecule, the kon in assay [3] was found to be 1.89e+06 M⁻¹ s⁻¹; in assay [4], 4.2e+06 M⁻¹ s⁻¹; in assay [5] it was 6.86e+06 M⁻¹ s⁻¹.

B2: 2A8 (antibody, human IgG1, lambda, V domains shown)
VH: QVQLVESGGGLVQPGGSLRLSCAASGFTFRSYGMSWVRQAPGKGLEWVSSIRGSSSSTYYADSVKGRFTISRDNSKNTLYLQMNSLRAEDTAVYYCARKYRYWFDYWGQGTLVTVSS
VL: DIELTQPPSVSVAPGQTARISCSGDNLRNYYAHWYQQKPGQAPVVVIYYDNNRPSGIPERFSGSNSGNTATLTISGTQAEDEADYYCQSWDDGVPVFGGGTKLTVLG
For the molecule B2, the Kd in [3] is 10.6 nM; in [4] it was 1.69 nM; in assay [5] it was 13.2 nM; in assay [10], 33.6 nM. The koff in assay [3] is 0.00377 s⁻¹; in assay [4], 0.00123 s⁻¹; in assay [5] it was 0.00306 s⁻¹; in assay [10], 0.00632 s⁻¹. In addition, the kon was 355000 M⁻¹ s⁻¹ in [3], 730000 M⁻¹ s⁻¹ in assay [4], 237000 M⁻¹ s⁻¹ in assay [5] and 191000 M⁻¹ s⁻¹ in [10]. Besides, the binding result in [11] and in assay [12] was “no binding” in each case.

B3: 2A8-200 (antibody, human IgG1, lambda, V domains shown)
VH: QVQLVESGGGLVQPGGSLRLSCAASGFTFRSYGMDWVRQAPGKGLEWVSSIRGSRSSTYYADSVKGRFTISRDNSKNTLYLQMNSLRAEDTAVYYCARLYRYWFDYWGQGTLVTVSS
VL: DIELTQPPSVSVAPGQTARISCSGDNLRNYYAHWYQQKPGQAPVVVIFYDVNRPSGIPERFSGSNSGNTATLTISGTQAEDEADYYCQSWWDGVPVFGGGTKLTVLG
notes: also called Anti-TFPI-2A8-200
As to B3, the “FVIIa/TF/Xa EC50” value in assay [1] came out at 4.84 nM. For the same molecule, the “Xa Inhibition Assay EC50” value in assay [1] stood at 2.42 nM. Also, the Kd was 0.327 nM in assay [3]; 0.145 nM in assay [4]; 0.637 nM in [5]; 0.455 nM in assay [10]; 0.327 nM in assay [6]; 0.145 nM in assay [7]. The Kd is 0.637 nM in assay [8] and 0.455 nM in assay [9]. Besides, the koff in [3] came out at 0.000381 s⁻¹; in assay [4], 0.000277 s⁻¹; in assay [5], 0.000809 s⁻¹; in assay [10], 0.00117 s⁻¹. The kon in [3] stood at 1.16e+06 M⁻¹ s⁻¹; in [4] it was 1.92e+06 M⁻¹ s⁻¹; in [5] it was 1.25e+06 M⁻¹ s⁻¹; in [10], 2.54e+06 M⁻¹ s⁻¹. Besides, the binding result in assay [11] and in assay [12] was “no binding” throughout.

B4: hz4D8 (antibody, human IgG1, kappa, V domains shown)
VH: EVQLVESGGGLVQPGGSLRLSCAASGYTFTDYNLDWVRQAPGKGLEWVADINPINGATLYNQKFKGRFTISRDQAKNSLYLQMNSLRAEDTAVYYCARYYGDYDAMDYWGQGTLVTVSS
VL: DIQMTQSPSSLSASVGDRVTITCKASQDVHTAVAWYQQKPGKAPKLLIYWASTRHTGVPSRFSGSGSGTDYTLTISSLQPEDFATYYCQQHYTTPYTFGQGTKLEIKR
notes: also called 4D8-Vk1.1 × VH1.4; 4D8 Vk 1.1 × VH 1.4
On to B4, for which the “FVIIa/TF/Xa EC50” value in assay [1] was 0.4 nM. Also, in assay [1], the “Xa Inhibition Assay EC50” value was 6.92 nM. For the same molecule, the EC50 came to 0.0493 nM in assay [13] and 0.0716 nM in [14]. In addition, the Kd in [3] was 0.42 nM; in assay [4], 0.502 nM; in assay [5] it was 0.067 nM; in assay [15] it was 0.293 nM; in assay [6], 0.42 nM; in assay [7], 0.502 nM. This molecule also returned a Kd in [8] of 0.067 nM. Further, the koff in assay [3] was determined as 0.00132 s⁻¹; in assay [4], 0.0029 s⁻¹; in assay [5], 0.00195 s⁻¹; in assay [15] it was 5.28e-05 s⁻¹. For the same molecule, the on-rate (kon) in assay [3] was determined as 3.16e+06 M⁻¹ s⁻¹; in assay [4], 3.16e+06 M⁻¹ s⁻¹; in [5], 2.93e+07 M⁻¹ s⁻¹; in assay [15] it was 221000 M⁻¹ s⁻¹. The binding result in [16] and in [9] was “no binding” in each case. The “FXa EC50” value in assay [17] worked out at 1.87 nM. In addition, the “FXa-FVIIa EC50” value in [17] came out at 1.57 nM.

B5: TFPI-106 (antibody, human IgG1, lambda)
light: QSVLTQPPSVSGAPGQRVTISCTGSSSNIGAGYDVHWYQQLPGTAPKLLIYGNSNRPSGVPDRFSGSKSGTSASLAITGLQAEDEADYYCQSYDSSLSGSGVFGGGTKLTVLGQPKAAPSVTLFPPSSEELQANKATLVCLISDFYPGAVTVAWKADSSPVKAGVETTTPSKQSNNKYAASSYLSLTPEQWKSHRSYSCQVTHEGSTVEKTVAPTECS
heavy: not shown
For the molecule B5, the “FVIIa/TF/Xa EC50” value in assay [1] was determined as 4.3 nM. Also, the “Xa Inhibition Assay EC50” value in assay [1] was 18.1 nM. Moreover, the “EC50, neutralization of FVIIa/TF/FXa inhibition” value in [18] amounted to 8.47 nM. In addition, the Kd in assay [2] was 1.57 nM; in [4], 4.25 nM; in [16], 1.57 nM; in assay [7], 4.25 nM.

B6: TFPI-24 (antibody, human IgG1, lambda, V domains shown)
VH: EVQLVESGGGSVQPGRSLRLSCAVSGLTIDNYAMQWVRQRPGKGLEWVSGISGNSRSIGYADSVKGRLTISRDNAKNSLYLQIDSLRADDTALYYCAIFLHESDYWGQGTLVTVSS
VL: QSVLTQPPSVSGTPGQRVTISCSGSTSNIGTMYVHWYQHVPGTAPKLLIYRNNHRPSGVPDRFSGSKSGTSGSLAISGLRSEDEADYYCLAWDDTLRAYVFGTGTKVTVLG
notes: Human IgG1-3M from phage display; also called mAb-TFPI-24; clone 24
For the molecule B6, in [19], the Kd came out at 5.46 nM, the off-rate (koff) worked out at 0.000862 s⁻¹ and the kon stood at 159000 M⁻¹ s⁻¹. In assay [20], binding was put at a Kd of 24.1 nM, the koff stood at 0.00596 s⁻¹ and the kon was determined as 248000 M⁻¹ s⁻¹. In assay [21], this molecule gave a dissociation rate constant (koff) of 0.000862 s⁻¹ and a kon of 159000 M⁻¹ s⁻¹. Besides, in assay [22], the “FXa EC50” value was 23 nM and the “FXa-FVIIa EC50” value was found to be 9.3 nM.

B7: TFPI-118 (antibody, human IgG1, lambda, V domains shown)
VH: EVQLVESGGGLVQPGRSLRLSCAVSGLTIDNYAMQWVRQAPGKGLEWVSGISGNSRSIGYADSVKGRFTISRDNAKNSLYLQMNSLRAEDTALYYCAIFLHESDYWGQGTLVTVSS
VL: QSVLTQPPSASGTPGQRVTISCSGSTSNIGTMYVHWYQQLPGTAPKLLIYRNNHRPSGVPDRFSGSKSGTSASLAISGLRSEDEADYYCLAWDDTLRAYVFGTGTKVTVLG
notes: Germlined variant of TFPI-24: VL of TFPI-113 paired with VH of TFPI-108
Turning to B7, the “FVIIa/TF/Xa EC50” value in assay [1] came to 4.03 nM. Further, the “Xa Inhibition Assay EC50” value in assay [1] came out at 20.8 nM. Besides, the Kd in assay [2] is 3.65 nM; in [4] it was 5.79 nM; in assay [16], 3.65 nM; in [7], 5.79 nM.
